Like-named read-outs stand apart in the source and are kept apart here. Starred links: 1 amine or outer side, 2 acyl side, 3 side chain; linkers in the order of their positions; H or OH if unused. Non-standard residues stand in square brackets, D forms with d. Residues, ends and D or L forms follow the SMILES beside them. *: point of attachment. DOTA = O=C(O)CN1CCN(CC(=O)O)CCN(CC(=O)*)CCN(CC(=O)O)CC1; d(γGlu) = O=C(O)[C@@H](CCC(=O)[*:2])N[*:1]; 1Nal = N[C@@H](Cc1cccc2ccccc12)C(=O)O; NMeNle = CCCC[C@H](NC)C(=O)O; PEG4 = NCCOCCOCCOCCOCCC(=O)O
Tests used:
CCK-2R [1] = experiment: Competition studies in AR4-2J tumor-bearing CB17-SCID mice; assay type: in vivo; details: co-administration of excess unlabeled competitor (40 nmol), 24 h p.i.
Description: For competition studies, the radiolabeled compound (approx. 1-5 MBq, 100 pmol) was co-injected with [^natLu]Lu-DOTA-MGS5 (40 nmol) into the tail vein of AR4-2J tumor-bearing CB17-SCID mice and sacrificed at 1 to 24 h post injection (n = 2). Selected organs were removed, weighted and measured in a γ-counter.

CCK-2R [2] = biological target: T1, CCK-2R (Rattus norvegicus, UniProt P30553); experiment: Determination of IC50: CCK-2R affinity on AR4-2J cells, competition with [^177Lu]Lu-DOTA-PP-F11N; assay type: binding; details: AR4-2J cells
T1 construct: The CCK-2R expressing rat pancreatic tumor cells AR4-2J; host or cells: AR4-2J rat pancreatic tumor cells
T1 sequence (P30553 1-452): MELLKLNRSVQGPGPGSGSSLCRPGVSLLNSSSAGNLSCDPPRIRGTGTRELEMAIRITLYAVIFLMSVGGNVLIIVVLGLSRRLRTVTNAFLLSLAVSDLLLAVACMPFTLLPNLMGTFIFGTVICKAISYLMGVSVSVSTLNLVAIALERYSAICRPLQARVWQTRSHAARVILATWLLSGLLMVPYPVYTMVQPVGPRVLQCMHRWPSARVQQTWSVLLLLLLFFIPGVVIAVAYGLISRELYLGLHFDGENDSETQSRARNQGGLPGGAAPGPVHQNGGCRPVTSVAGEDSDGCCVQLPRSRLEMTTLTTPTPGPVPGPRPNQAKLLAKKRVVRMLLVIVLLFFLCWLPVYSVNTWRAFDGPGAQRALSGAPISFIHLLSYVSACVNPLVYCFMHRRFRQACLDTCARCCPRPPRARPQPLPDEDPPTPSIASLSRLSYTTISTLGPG
Outline: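 Competitive displacement of 0.3 pmol/well [177Lu]Lu-DOTA-PP-F11N by compounds (10^-10 to 10^-4 M) on AR4-2J cells in BSA-supplemented medium, 3 h at 37 °C. Free label was collected from medium plus PBS rinse, and cell-bound label was recovered with 1 M NaOH, both measured by γ-counter. Each IC50 was determined twice, in triplicate.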

[3] = n-Octanol-PBS distribution coefficient (logD7.4); assay type: physicochemical; details: for logD7.4 (n ≥ 5), ^67Ga-labeled: pH = 7.4, ^67Ga-labeled; for logD7.4 (n ≥ 5), ^177Lu-labeled: pH = 7.4, ^177Lu-labeled
Description: Approximately 1 MBq of the labeled tracer was dissolved in 1 mL of a 1/1 mixture (v/v) of phosphate buffered saline (PBS, pH = 7.4) and n-octanol in an Eppendorf tube (1.5 mL). After vigorous mixing of the suspension for 3 min at rt, the vial was centrifuged at 9,000 rpm for 5 min (Biofuge 15, Heraeus Sepatech, Osterode, Germany) and 200 µL aliquots of both layers were measured in a γ-counter. The experiment was repeated at least five times.

[4] = Biodistribution in AR4-2J tumor-bearing CB17-SCID mice; assay type: in vivo; details: female, CB17-SCID, mouse, in vivo, iv, 100 pmol, total radioactivity
Description: (§1) All animal experiments were conducted in accordance with general animal welfare regulations in Germany (German animal protection act, in the edition of the announcement, dated May 18th, 2006, as amended by Article 280 of June 19th 2020, approval no. ROB-55.2-1-2532.Vet_02-18-109 by the General Administration of Upper Bavaria) and the institutional guidelines for the care and use of animals. CB17-SCID mice of both genders (Charles River Laboratories International Inc., Sulzfeld, Germany) were let to acclimate at the in-house animal facility at least for one week before inoculation was performed. To establish tumor xenografts, AR4-2J cells (5.0 × 10^6 cells per 200 µL) were suspended in a 1/1 mixture (v/v) of Dulbecco modified Eagle medium / Nutrition Mixture F-12 with Glutamax-I (1/1) and Cultrex® Basement Membrane Matrix Type 3 (Trevigen, Gaithersburg, MD, USA) and inoculated subcutaneously onto the right shoulder of 6-10 weeks old CB17-SCID mice (Charles River, Sulzfeld, Germany). Mice were used for experiments when tumors had grown to a volume of 150-300 mm^3 (1-2 weeks after inoculation). Exclusion criteria for animals from an experiment were either a weight loss higher than 20%, a tumor size above 1,500 mm^3, an ulceration of the tumor, a respiratory distress or a change of behavior. None of these criteria applied to any animal from the experiment. Neither randomization nor blinding was applied in the allocation of the experiments. Health status is SPF according to FELASA.
(§2) Approximately 1-5 MBq (100 pmol) of the radiolabeled minigastrin analogues were injected into the tail vein of AR4-2J tumor-bearing female CB17-SCID mice and sacrificed at 1 to 24 h post injection (n = 4-5). Selected organs were removed, weighted and measured in a γ-counter.

[5] = biological target: T2, Human serum albumin (HSA) (Homo sapiens, UniProt P02768); experiment: Determination of HSA binding on a Chiralpak HSA column; assay type: in vitro ADME
T2 construct: purchased Daicel, Tokyo, Japan H13H-2433
T2 sequence (P02768 25-609): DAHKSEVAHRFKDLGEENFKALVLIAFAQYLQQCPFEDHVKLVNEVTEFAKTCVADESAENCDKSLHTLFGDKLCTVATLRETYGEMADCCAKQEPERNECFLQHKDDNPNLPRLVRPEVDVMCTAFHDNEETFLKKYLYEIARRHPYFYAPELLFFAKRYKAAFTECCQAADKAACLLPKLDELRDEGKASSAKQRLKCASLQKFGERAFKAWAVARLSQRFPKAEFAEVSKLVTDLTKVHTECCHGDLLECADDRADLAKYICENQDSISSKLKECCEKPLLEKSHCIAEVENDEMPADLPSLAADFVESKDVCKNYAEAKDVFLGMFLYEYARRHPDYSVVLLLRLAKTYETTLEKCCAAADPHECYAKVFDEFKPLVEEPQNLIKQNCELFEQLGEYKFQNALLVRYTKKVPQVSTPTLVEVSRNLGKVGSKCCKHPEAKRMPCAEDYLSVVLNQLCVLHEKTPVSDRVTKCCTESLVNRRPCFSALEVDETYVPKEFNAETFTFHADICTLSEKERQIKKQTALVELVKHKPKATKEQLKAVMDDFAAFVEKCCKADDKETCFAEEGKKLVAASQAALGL
Outline: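 Retention on an HSA column with a 50 mM NH4OAc (pH 6.9)/isopropanol gradient at 0.5 mL/min, rt; samples run at 0.5 mg/mL in A/B (1/1). Binding derived by non-linear regression against nine reference compounds spanning 13 to 99% HSA binding.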

[6] = test system: AR4-2J tumor-bearing CB17-SCID mice; experiment: Biodistribution in AR4-2J tumor-bearing CB17-SCID mice; assay type: in vivo; details: 24 h p.i.
Description: as §1, §2

[7] = ^natLu-labeled, read-out: IC50 [nM] (n = 3), ^natLu-labeled

Row | SMILES | activity levels in stomach and tumor in competition studies (CCK-2R specificity) (CCK-2R [1]) | IC50 (CCK-2R [2]; ^natCu-labeled, read-out: IC50 [nM] (n = 3), ^natCu-labeled) | IC50 (CCK-2R [2]; ^natGa-labeled, read-out: IC50 [nM] (n = 3), ^natGa-labeled) | IC50 (CCK-2R [2]; [7]) [nM] | logD7.4 (n ≥ 5), ^64Cu-labeled ([3]; pH = 7.4, ^64Cu-labeled) | logD7.4 (n ≥ 5), ^67Ga-labeled [3] | logD7.4 (n ≥ 5), ^67Ga-labeled ([3]; listed as [^67Ga]Ga-DOTA-CCK-66) | logD7.4 (n ≥ 5), ^177Lu-labeled [3] | tissue to tissue ratio at 24 h [4] | tissue uptake at 24 h [4] [%ID/g] | HSA binding [%] [5] [%] | HSA binding [%], ^natCu-labeled [5] [%] | HSA binding [%], ^natGa-labeled [5] [%] | HSA binding [%], ^natLu-labeled [5] [%] | tissue uptake at 24 h ([4]; 24 h p.i., read-out: activity levels in the tumor) [%ID/g] | activity levels in the tumor, fold higher than those of [^177Lu]Lu-DOTA-PP-F11N [6]
1 | CCCC[C@@H](C(=O)N[C@@H](CC(=O)O)C(=O)N[C@@H](Cc1cccc2ccccc12)C(N)=O)N(C)C(=O)[C@H](Cc1c[nH]c2ccccc12)NC(=O)CCOCCOCCOCCOCCNC(=O)CC[C@@H](NC(=O)CN1CCN(CC(=O)O)CCN(CC(=O)O)CCN(CC(=O)O)CC1)C(=O)O [DOTA-CCK-66, DOTA-γ-glu-(PEG)3-Trp-(N-Me)Nle-Asp-1-Nal-NH2] ({DOTA-d(γGlu)-PEG4}-W[NMeNle]D[1Nal]-NH2) | significantly decreased activity levels in both stomach and tumor | 4.2 ± 0.5 | 5 ± 0.5 | 5.1 ± 0.5 | −2.64 ± 0.04 | −3.01 ± 0.07 | < -3 | −2.60 ± 0.07 | 2010 ± 469 | 8.56 ± 1.08 | 61.5 | 61.5 | 53.8 | 69.1 | – | –
2 | CCCC[C@H](NC(=O)[C@H](Cc1c[nH]c2ccccc12)NC(=O)CNC(=O)[C@H](Cc1ccc(O)cc1)NC(=O)[C@H](C)NC(=O)CC[C@@H](NC(=O)CC[C@@H](NC(=O)CC[C@@H](NC(=O)CC[C@@H](NC(=O)CC[C@@H](NC(=O)CC[C@@H](NC(=O)CC[C@@H](NC(=O)CC[C@@H](NC(=O)[C@@H](CNC(=O)c1ccc([Si](F)(C(C)(C)C)C(C)(C)C)cc1)NC(=O)CN1CCN(CC(=O)O)CCN(CC(=O)O)CCN(CC(=O)O)CC1)C(=O)O)C(=O)O)C(=O)O)C(=O)O)C(=O)O)C(=O)O)C(=O)O)C(=O)O)C(=O)N[C@@H](CC(=O)O)C(=O)N[C@@H](Cc1ccccc1)C(N)=O [DOTA-MG-SiFA-23, DOTA-dap(SiFA)-(γ-glu)8- Ala-Tyr-Gly-Trp-Nle-Asp-Phe-NH2] | specific | – | – | 4.71 ± 0.62 | – | – | – | −2.69 ± 0.06 | – | – | – | – | – | – | > 25 | more than 8 fold

Source: patent EP4631959A2, “NOVEL MINIGASTRIN-DERIVED CHOLECYSTOKININ 2 RECEPTOR BINDING MOLECULES FOR IMAGING AND TARGETED RADIOTHERAPY” (priority 2022, dated 2024)
